One test has as its target T1, T7-FLAME-2 (Homo sapiens (Human), UniProt O75618 1-318).
T1 sequence: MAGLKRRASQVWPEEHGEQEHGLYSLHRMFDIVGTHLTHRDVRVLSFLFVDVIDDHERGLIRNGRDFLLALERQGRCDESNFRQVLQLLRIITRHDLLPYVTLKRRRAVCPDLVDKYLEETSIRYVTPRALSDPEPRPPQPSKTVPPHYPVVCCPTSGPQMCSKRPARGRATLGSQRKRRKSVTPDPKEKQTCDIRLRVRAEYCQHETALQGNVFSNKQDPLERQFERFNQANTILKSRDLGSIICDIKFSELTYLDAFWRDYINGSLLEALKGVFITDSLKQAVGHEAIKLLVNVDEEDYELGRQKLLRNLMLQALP
Description: co-immunoprecipitation from transfected 293T cells with Flag-tagged Fas, with or without T7-FADD.

Test [1] concerns the target LexA-FLAME-1-FDH (residues 1-160) (human, UniProt O15519 1-160). As to the kind of experiment: yeast two-hybrid assay.

Description for T7-FLAME-2: After 34-36 h, extracts were prepared and immunoprecipitated with a monoclonal antibody to the Flag-epitope. […] Cells were lysed in a lysis buffer (50 mM Tris, pH 7.6, 150 mM NaCl, 0.1 NP-40) and incubated with anti Flag-M5 monoclonal antibody (IBI Kodak). The immune complexes were precipitated with protein-A/G-Sepharose, washed and then eluted by boiling in SDS-sample buffer. The eluted proteins were resolved by SDS-PAGE and detected by Western analysis with a HRP-conjugated T7-antibody (Novagen). The samples were analyzed by SDS-PAGE and Western blotted with a horseradish peroxidase (HRP)-conjugated T7-antibody. All extracts were immunoblotted with anti-Flag and anti-T7 to verify expression of the encoded proteins.

B1: Flag-tagged Fas (receptor, UniProt P25445 26-335, looked up, not shown: small tags and cut ends)
chain: QVTDINSKGLELRKTVTTVETQNLEGLHHDGQFCHKPCPPGERKARDCTVNGDEPDCVPCQEGKEYTDKAHFSSKCRRCRLCDEGHGLEVEINCTRTQNTKCRCKPNFFCNSTVCEHCDPCTKCEHGIIKECTLTSNTKCKEEGSRSNLGWLCLLLLPIPLIVWVKRKEVQKTCRKHRKENQGSHESPTLNPETVAINLSDVDLSKYITTIAGVMTLSQVKGFVRKNGVNEAKIDEIKNDNVQDTAEQKVQLLRNWHQLHGKKEAYDTLIKDLKKANLCTLAEKIQTIILKDITSDSENSNFRNEIQSLV
notes: Expressed in 293T cells and immunoprecipitated with the anti-Flag antibody
Consider B1, for which, in the test with T7-FLAME-2, the binding result is “no binding”.

B2: B42-FADD-DED (murine FADD-DED, residues 1-78) (other, UniProt Q61160 1-78, looked up, not shown: large carriers)
chain: MDPFLVLLHSLSGSLSGNDLMELKFLCRERVSKRKLERVQSGLDLFTVLLEQNDLERGHTGLLRELLASLRRHDLLQR
notes: range 1-78
Regarding B2, the binding result in test [1] was “binds”.

(Values after patent US20020086983A1 (THOMAS JEFFERSON UNIVERSITY, published 2002).)
